From patent US20230322924A1 (Janssen / Centocor, published 2023)

T1: Cynomolgous monkey PSMA, full length, on HEK293F cells (Macaca fascicularis (cynomolgus monkey))
T1 construct: stably transfected HEK293F cells; also called cyno PSMA; Cyno-PSMA HEK
T1 chain: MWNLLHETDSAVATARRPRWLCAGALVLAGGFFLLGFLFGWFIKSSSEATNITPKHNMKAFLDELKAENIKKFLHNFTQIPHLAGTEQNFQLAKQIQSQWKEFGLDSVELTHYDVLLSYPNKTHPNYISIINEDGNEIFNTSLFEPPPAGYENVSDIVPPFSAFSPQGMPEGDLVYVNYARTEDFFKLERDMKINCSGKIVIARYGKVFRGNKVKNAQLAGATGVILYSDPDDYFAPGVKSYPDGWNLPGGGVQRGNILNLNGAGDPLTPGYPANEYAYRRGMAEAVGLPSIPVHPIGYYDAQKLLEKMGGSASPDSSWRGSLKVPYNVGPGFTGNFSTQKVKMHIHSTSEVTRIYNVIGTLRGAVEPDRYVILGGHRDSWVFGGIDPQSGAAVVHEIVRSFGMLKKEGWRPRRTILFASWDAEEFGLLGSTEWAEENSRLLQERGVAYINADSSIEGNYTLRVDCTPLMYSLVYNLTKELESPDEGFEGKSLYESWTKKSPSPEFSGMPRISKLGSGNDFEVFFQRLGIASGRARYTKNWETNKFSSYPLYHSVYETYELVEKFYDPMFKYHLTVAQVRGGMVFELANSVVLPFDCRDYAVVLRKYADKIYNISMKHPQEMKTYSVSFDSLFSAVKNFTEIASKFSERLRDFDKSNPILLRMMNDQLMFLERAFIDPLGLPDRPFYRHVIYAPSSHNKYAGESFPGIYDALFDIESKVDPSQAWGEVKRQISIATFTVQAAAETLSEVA

T2: chimpanzee PSMA, full length, on HEK293F cells (Pan troglodytes (chimpanzee))
T2 construct: stably transfected HEK293F cells; also called chimp PSMA; chimp-PSMA HEK
T2 chain: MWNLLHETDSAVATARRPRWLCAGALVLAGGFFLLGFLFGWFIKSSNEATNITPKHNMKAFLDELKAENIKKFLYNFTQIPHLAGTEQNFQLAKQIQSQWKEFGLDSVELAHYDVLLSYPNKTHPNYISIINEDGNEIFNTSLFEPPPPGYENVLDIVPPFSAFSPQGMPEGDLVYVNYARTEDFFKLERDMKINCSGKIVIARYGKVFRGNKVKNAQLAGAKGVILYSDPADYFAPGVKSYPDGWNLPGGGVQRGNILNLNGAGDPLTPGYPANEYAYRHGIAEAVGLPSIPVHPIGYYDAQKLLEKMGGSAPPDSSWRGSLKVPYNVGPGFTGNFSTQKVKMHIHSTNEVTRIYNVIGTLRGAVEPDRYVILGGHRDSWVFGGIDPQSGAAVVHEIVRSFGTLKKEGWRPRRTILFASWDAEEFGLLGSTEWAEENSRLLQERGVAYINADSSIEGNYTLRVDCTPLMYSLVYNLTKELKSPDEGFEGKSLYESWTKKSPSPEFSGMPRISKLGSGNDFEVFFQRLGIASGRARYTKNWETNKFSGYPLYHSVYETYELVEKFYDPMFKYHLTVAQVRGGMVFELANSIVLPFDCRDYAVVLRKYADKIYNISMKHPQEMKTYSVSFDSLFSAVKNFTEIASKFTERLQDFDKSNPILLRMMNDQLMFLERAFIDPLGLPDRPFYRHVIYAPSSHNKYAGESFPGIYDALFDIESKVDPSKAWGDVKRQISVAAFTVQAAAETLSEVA

T3: TMEW1 (TMEFF2-FL-ECD-His-Avitag) (human, UniProt Q9UIK5 41-320)
T3 construct: Human TMEFF2 ECD with C-terminal G3S, 6xHis tag and Avi-tag, all in the entry; also called TMEFF2 ECD
T3 sequence: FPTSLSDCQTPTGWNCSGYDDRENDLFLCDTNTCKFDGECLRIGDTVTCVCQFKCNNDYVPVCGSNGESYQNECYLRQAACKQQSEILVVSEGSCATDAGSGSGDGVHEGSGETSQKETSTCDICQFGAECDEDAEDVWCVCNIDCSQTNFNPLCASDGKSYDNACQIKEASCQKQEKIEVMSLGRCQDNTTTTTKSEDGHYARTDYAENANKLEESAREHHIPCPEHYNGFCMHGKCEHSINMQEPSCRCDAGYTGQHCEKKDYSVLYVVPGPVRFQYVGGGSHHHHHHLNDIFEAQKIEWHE

T4: TMEW19 (spTMEFF2(230-320)G3S-H6) (human, UniProt Q9UIK5 230-320)
T4 construct: Residues 230-320 of human TMEFF2 with G3S and 6xHis tag, all in the entry; also called TMEFF2 membrane proximal region; MP
T4 sequence: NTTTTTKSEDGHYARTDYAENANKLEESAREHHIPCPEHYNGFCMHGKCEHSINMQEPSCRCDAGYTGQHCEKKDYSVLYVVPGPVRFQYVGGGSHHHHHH


Columns and labels:
[1] = target: T1, Cynomolgous monkey PSMA, full length, …; experiment: flow cytometry, Fab supernatant, cyno PSMA HEK cells
Method: (§1) Individual Fab clones were isolated from the round 3 output of all panning experiments following pIX excision. Fab clones were tested for binding to chimp and cyno PSMA expressing HEK cells, as well as to human PSMA on LNCaP cells. Briefly, PSMA expressing cells were aliquoted into a V-bottom plate (CoStar 3357) at a density of 200,000 per well and incubated with (100 μl) supernatants expressing Fab fragments for 1 hour on ice. Cells were washed twice with PBS containing 2% FBS, and stained with a mouse anti-human kappa-RPE antibody (Life Technologies cat #MH10514) for 1 hour on ice. Cells were washed twice with PBS containing 2% FBS and resuspended in […] of the same wash buffer. Plates were read on a BD FACS Array flow cytometer. FACS data was analyzed in FlowJo software by live gating the healthy population of cells using forward scatter and side scatter, and then analyzing the cells within this gate for PE staining. Mean fluorescence intensity (MFI) was calculated and exported into Microsoft Excel. […] Fabs were sequenced and moved forward for cloning into mammalian expression vector for rescreening. True positives were selected from the binding of mammalian cell expressed Fab supernatants to PSMA-expressing cell lines.
(§2) Confirmation of mammalian expressed Fab supernatants was performed using the whole cell binding assay described previously. Binding of Fabs to human PSMA (LNCaP), chimpanzee, and cynomolgous monkey cells was tested, as well as counter screening for no binding to the parental HEK cell line.

[2] = target: T2, chimpanzee PSMA, full length, on …; experiment: flow cytometry, Fab supernatant, chimp PSMA HEK cells
Method: as §1, §2

[3] = target: T5, human PSMA on LNCaP cells (human, UniProt Q04609 1-750); experiment: flow cytometry, Fab supernatant, LNCaP cells
T5 construct: PSMA of the LNCaP prostate cancer cell line itself
T5 sequence (Q04609 whole entry): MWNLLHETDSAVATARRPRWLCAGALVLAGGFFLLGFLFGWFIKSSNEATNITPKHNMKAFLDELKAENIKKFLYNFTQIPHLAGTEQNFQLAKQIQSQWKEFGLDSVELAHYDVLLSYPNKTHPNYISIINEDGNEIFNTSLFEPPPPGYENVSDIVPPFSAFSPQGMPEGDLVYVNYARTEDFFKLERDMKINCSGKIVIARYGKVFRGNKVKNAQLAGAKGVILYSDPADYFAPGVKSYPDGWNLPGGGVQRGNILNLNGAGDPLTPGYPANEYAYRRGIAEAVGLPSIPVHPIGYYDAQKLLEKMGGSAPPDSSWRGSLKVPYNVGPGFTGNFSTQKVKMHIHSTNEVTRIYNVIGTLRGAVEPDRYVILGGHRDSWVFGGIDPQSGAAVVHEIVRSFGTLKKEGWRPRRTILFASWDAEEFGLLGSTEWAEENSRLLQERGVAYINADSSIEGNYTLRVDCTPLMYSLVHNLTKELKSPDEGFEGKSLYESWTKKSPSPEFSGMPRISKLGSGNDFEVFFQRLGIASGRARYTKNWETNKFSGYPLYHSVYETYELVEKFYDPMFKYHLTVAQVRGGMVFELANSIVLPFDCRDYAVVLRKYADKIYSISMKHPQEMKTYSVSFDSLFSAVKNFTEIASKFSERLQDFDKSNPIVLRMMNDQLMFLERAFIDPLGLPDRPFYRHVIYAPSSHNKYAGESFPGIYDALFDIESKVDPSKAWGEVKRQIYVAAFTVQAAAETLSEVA
Method: as §1, with “A cell-based binding assay was designed to assess the binding capabilities of individual Fab-his fusions from E. coli supernatants to PSMA-expressing cells. Individual” for “Individual”
as §2

[4] = target: T3, TMEW1 (TMEFF2-FL-ECD-His-Avitag); experiment: ProteOn SPR, mAb captured on anti-human Fc, TMEFF2 as analyte
Method: (§3) The binding of anti-TMEFF2 mAbs to the ECD and the membrane proximal region of human TMEFF2 was measured by ProteOn SPR (Bio-Rad). The purified mAbs (diluted to a final concentration of 1 μg/ml in PBST) were used as ligands in the assay and were immobilized through Fc capture to Goat Anti-Human (GAH) IgG Fc. For amine coupling of the GAH IgG Fc, a 1:1 mixture of EDC (40 mM) and NHS (10 mM) were mixed immediately prior to injection to activate the chip surface and injected in the vertical orientation. GAH-Fc (at 30 μg/ml) antibody in acetate buffer (pH 5.0) was then flowed over the surface for 300 seconds at 30 μl/min in the vertical orientation. Any remaining reactive carboxyl groups in the surface were subsequently deactivated by injecting 1M Ethanolamine (pH 8.5) in the same orientation. The antibodies were used at a concentration of 1 μg/ml for immobilization. The antibodies were flowed over the surface in the horizontal direction. Human TMEFF2 ECD or the membrane proximal region in 3-fold dilution series of 5 concentrations (highest concentration ranging from 100-600 nM) was flowed in as analyte in the vertical orientation to bind to the captured molecules. A buffer sample was also injected in the 6th channel in the vertical direction to monitor any drift in the baseline signal. The association and dissociation phases for all concentrations were monitored over 3 minutes and 30 (or 15) minutes respectively, at a flow rate of 100 μL/min. The binding surface was regenerated for the next interaction cycle using an 18 second pulse of 0.8% phosphoric acid to remove the bound antigen. The raw data were processed by subtracting two sets of reference data from the response data: 1) the inter-spot signals to correct for the non-specific interactions between the antigen and the empty chip surface; 2) the empty channel signals (where only PBST was flowed over the chip) to correct for non-specific baseline drift.

[5] = target: T4, TMEW19 (spTMEFF2(230-320)G3S-H6); experiment: as above
Method: as §3

Binder | Geo-MFI [1] | Geo-MFI [2] | Geo-MFI [3] | Kd [4] | koff [4] | kon [4] | Kd [5] | koff [5] | kon [5]
PSMB18 (Fab, V domains shown, mammalian-expressed Fab supernatant (huG1 Fab and human kappa vectors); also called PSMM18) VH: EVQLVQSGAEVKKPGESLKISCKGSGYSFTSYWIGWVRQMPGKGLEWMGIIYPGDSDTRYSPSFQGQVTISADKSISTAYLQWSSLKASDTAMYYCARAYHYSKGLDYWGQGTLVTVSS VL: not shown | 696 | 439 | – | – | – | – | – | – | –
PSMB25 (Fab, V domains shown, mammalian-expressed Fab supernatant (huG1 Fab and human kappa vectors); also called PSMM25) VH: EVQLVQSGAEVKKPGESLKISCKGSGYSFTSYWIGWVRQMPGKGLEWMGIIYPGDSDTRYSPSFQGQVTISADKSISTAYLQWSSLKASDTAMYYCARGWAYDRGLDYWGQGTLVTVSS VL: not shown | 15.2 | 11.3 | 16.9 | – | – | – | – | – | –
TMEB674 (antibody, human IgG4 S228P, kappa, F234A L235A, V domains shown, IgG4 PAA anti-TMEFF2; also called TMEH410/TMEL126) VH: VQLLESGGGLVQPPGGSLRLSCAASGFTFSSYSMSWVRQAPGKGLEWVSVISGGGSFTSYADSVKGRFTISRDNSNNTLYLQMSSLRAEDTAFYYCARMPLNSPHDCWGQGTLVTVSS VL: AIQMTQSPSSLSASVGDRVTITCRASQGIRNDLGWYQQKPGKAPKLLIYAASSLQSGVPSRFSGSGSGTDFTLTISSLQPEDFATYYCLQDYNYSLTFGGGTKVEIRR | – | – | – | 0.1 nM | 0.000162 s⁻¹ | 2.01e+06 M⁻¹ s⁻¹ | 0.2 nM | 0.000175 s⁻¹ | 837000 M⁻¹ s⁻¹
TMEB675 (antibody, human IgG4 S228P, kappa, F234A L235A, V domains shown, IgG4 PAA anti-TMEFF2; also called TMEH411/TMEL127) VH: EVQLLESGGGLVQRGGSLRPSCAASGFTFSSYSMSWVRQAPGKGLEWVSVISGSGGFTDYADSVKGRFTISRDNSKNTLYLHMNSLRAEDTAVYYCARMPLNSPHDYWGQGTLVTVSS VL: AIQMTQSPSSLSASVGDRVTITCRASQGIRNDLGWYQQKPGKAPKLLIYAASSLQSGVPSRFSGSGSGTDFTLTISSLQPEDFATYYCLQDYNYALTFGGGTKVEIKR | – | – | – | 0.1 nM | 0.000153 s⁻¹ | 2.65e+06 M⁻¹ s⁻¹ | 0.2 nM | 0.000158 s⁻¹ | 972000 M⁻¹ s⁻¹
TMEB565 (antibody, human IgG4 S228P, kappa, F234A L235A, V domains shown, IgG4 PAA anti-TMEFF2; also called TMEH396/TMEL111) VH: QVQLVQSGAEVKKPGSSVKVSCKASGGTFSSYYISWVRQAPGQGLEWMGGIIPISGRANYAQKFQGRVTITADESTSTAYMELSSLRSEDTAVYYCARDGYSSGRSTTYAFDYWGQGTLVTVSS VL: EIVLTQSPGTLSLSPGERATLSCRASQSVATYYLAWYQQKPGQAPRLLIYGASSRATGIPDRFSGSGSGTDFTLTISRLEPEDFAVYYCQQYGYNPITFGQGTKVEIKR | – | – | – | 0.02 nM | 9.13e-06 s⁻¹ | 384000 M⁻¹ s⁻¹ | 0.01 nM | 6.39e-06 s⁻¹ | 777000 M⁻¹ s⁻¹
TMEB570 (antibody, human IgG4 S228P, kappa, F234A L235A, V domains shown, IgG4 PAA anti-TMEFF2; also called TMEH396/TMEL112) VH: QVQLVQSGAEVKKPGSSVKVSCKASGGTFSSYYISWVRQAPGQGLEWMGGIIPISGRANYAQKFQGRVTITADESTSTAYMELSSLRSEDTAVYYCARDGYSSGRSTTYAFDYWGQGTLVTVSS VL: EIVLTQSPGTLSLSPGERATLSCRASQSVSTYYLAWYQQKPGQAPRLLIYGASYRATGIPDRFSGSGSGTDFTLTISRLEPEDFAVYYCQQYGHSPITFGQGTKVEIKR | – | – | – | 0.11 nM | 5.13e-05 s⁻¹ | 464000 M⁻¹ s⁻¹ | 0.06 nM | 4.67e-05 s⁻¹ | 762000 M⁻¹ s⁻¹
PSMB49 (Fab, V domains shown, mammalian-expressed Fab supernatant (huG1 Fab and human kappa vectors); also called PSMM50) VH: QVQLVQSGAEVKKPGSSVKVSCKASGGTFSSYAISWVRQAPGQGLEWMGGIIPIFGTANYAQKFQGRVTITADESTSTAYMELSSLRSEDTAVYYCARASRVWHASYGYLDYWGQGTLVTVSS VL: EIVLTQSPATLSLSPGERATLSCRASQSVSKWLAWYQQKPGQAPRLLIYDASNRATGIPARFSGSGSGTDFTLTISSLEPEDFAVYYCQQRFTAPWTFGQGTKVEIK | 51.6 | 22 | 3.22 | – | – | – | – | – | –
